Conditions: Bos taurus, glycine 40 mM, reversible: no, whole UniProt chain shown; for Tm / unfolding enthalpy (van 't Hoff): Thermal, Absorbance

B1: Adrenodoxin, mitochondrial wild type, P00257 (protein)
chain: MAARLLRVASAALGDTAGRWRLLARPRAGAGGLRGSRGPGLGGGAVATRTLSVSGRAQSSSEDKITVHFINRDGETLTTKGKIGDSLLDVVVQNNLDIDGFGACEGTLACSTCHLIFEQHIFEKLEAITDEENDMLDLAYGLTDRSRLGCQICLTKAMDNMTVRVPDAVSDARESIDMGMNSSKIE
In the case of B1, the Tm (pH 6.5) is reported as 47.5 °C, the “unfolding enthalpy (van 't Hoff)” value (pH 6.5) is reported as 90 kcal/mol and the Tm (pH 7.4) is reported as 53.7 °C. For the same protein, the “unfolding enthalpy (van 't Hoff)” value (pH 7.4) was 91.6 kcal/mol, the unfolding free energy (pH 8.5, 25 °C, Urea, DSC) was 5.02 kcal/mol and the Tm (pH 8.5) was 53.5 °C. The “unfolding enthalpy (van 't Hoff)” value (pH 8.5) was 82 kcal/mol, the Tm (pH 9.5) was 54 °C and the “unfolding enthalpy (van 't Hoff)” value (pH 9.5) was 79.2 kcal/mol. The Tm (pH 10.5) was 53.2 °C and the “unfolding enthalpy (van 't Hoff)” value (pH 10.5) was 64.6 kcal/mol.

— FireProtDB (doi:10.1002/pro.5560040510)
